According to paper PMC6386982, “A Thermostable Monoacylglycerol Lipase from Marine Geobacillus sp. 12AMOR1: Biochemical Characterization and Mutagenesis Study” (International Journal of Molecular Sciences, 2019):

How the values were obtained:
Assay in all cases: purified protein
Format in all cases: biochemical, Geobacillus sp. 12AMOR1
Conditions in all cases: 20 mM Tris-HCl pH 8.0, 30 °C
[1] = tested on: T1, CCCCCC(=O)Oc1ccc([N+](=O)[O-])cc1
T1 construct: catalytic triad Ser97, Asp196, His226

[2] = tested on: T2, CCCC(=O)Oc1ccc([N+](=O)[O-])cc1
T2 construct: catalytic triad Ser97, Asp196, His226

[3] = tested on: T3, CCCCCCCC(=O)Oc1ccc([N+](=O)[O-])cc1
T3 construct: catalytic triad Ser97, Asp196, His226

Substance	Km [1] [mM]	kcat [1] [s⁻¹]	kcat/Km [1] [M⁻¹ s⁻¹]	Km [2] [mM]	kcat [2] [s⁻¹]	kcat/Km [2] [M⁻¹ s⁻¹]	Km [3] [mM]	kcat [3] [s⁻¹]	kcat/Km [3] [M⁻¹ s⁻¹]
GMGL (Geobacillus sp. monoacylglycerol lipase) (Geobacillus sp. 12AMOR1)	4.06	4.31	1060	6.80	9.74	1430	2.83	2.58	910
GMGL (Geobacillus sp. monoacylglycerol lipase) (Geobacillus sp. 12AMOR1; I145A)	1.34	2.02	1510	9.56	3.25	340	8.32	0.95	110
GMGL (Geobacillus sp. monoacylglycerol lipase) (Geobacillus sp. 12AMOR1; I170F)	1.60	3.67	2290	2.37	3.31	1210	4.63	2.08	450
GMGL (Geobacillus sp. monoacylglycerol lipase) (Geobacillus sp. 12AMOR1; L142A)	1.66	4.08	2460	14.78	15.9	1080	4.65	1.29	280
